For this assay, the system named is HIV-1 LTR promoter transactivation by HIV-1 Tat. Description: Transactivation assay, HIV-1 LTR luciferase reporter with HIV-1 Tat. The conditions noted are these: HEK293 cells co-transfected with pHIV1LTR-Luc, HIV-1 Tat and the human ORF; relative luciferase activity 24 h post-transfection; positive if >=2 or <=0.5 and p<0.05. It counts as cell-based. From the text:
The plasmids pHIV1LTR-Luc or pHTLV1LTR-Luc containing a luciferase reporter gene under the control of the HIV-1 or HTLV-1 LTR promoters and plasmids expressing either HIV-1 Tat or HTLV-1 Tax and each human ORF found to interact with viral proteins were transfected into 10^4 HEK293 cells using the calcium phosphate method. Twenty-four hours post-transfection, cells were washed three times with PBS, lysed and luciferase activities determined from two independent transfection experiments in triplicate. We computed a paired t-test to assess the difference of the means between samples with and without the human interactor. For a trial to be considered positive, the relative luciferase activities has to be >=2 or <=0.5, and the p-value of the t-test<0.05.
Many HIV/HTLV-human interactions in our data set (130/212) involved the retroviral transactivator proteins HTLV-1 Tax (57/212), HTLV-2 Tax2 (49/212), HIV-1 Tat (10/212) and HIV-2 Tat (14/212). Human proteins interacting with viral transactivators likely influence Tat or Tax transactivation. Expression vectors encoding human ORFs and HIV-1 Tat or HTLV-1 Tax proteins were tested in a transactivation reporter assay against reporter plasmids harboring HIV-1 or HTLV-1 viral promoter sequences cloned upstream of the luciferase reporter gene. In the controls Tat or Tax respectively activated HIV or HTLV LTR-directed gene expression. Co-transfection of interacting human ORFs identified 71 proteins (54% of the 131 human targets in our data set) that regulated HIV (26.7% of targets), HTLV (37.4% of targets) or both (9.9% of targets) LTR promoter activation by Tat or Tax (see Tables 7 and 8; Table 13 below containing quantitative data on the regulation of transactivation). Wherever not expressly specified, constructs used herein were generally made by sub-cloning entry clones from the ORFeome V3.1 into suitable destination vectors.
(In general: A reporter such as luciferase makes a cellular process visible.)

B1: MLLT11: human host interactor protein, Gene ID 10962, expressed from transfected ORF vector (protein)
chain: MRDPVSSQYSSFLFWRMPIPELDLSELEGLGLSDTATYKVKDSSVGKMIGQATAADQEKNPEGDGLLEYSTFNFWRAPIASIHSFELDLL
In turn, B1 came in with an HIV_LTR transactiv. of 3.41 fold change.

B2: PDE9A: human host interactor protein, Gene ID 5152, expressed from transfected ORF vector (protein)
chain: MGSGSSSYRPKAIYLDIDGRIQKVIFSKYCNSSDIMDLFCIATGLPRNTTISLLTTDDAMVSIDPTMPANSERTPYKVRPVAIKQLSAGVEDKRTTSRGQSAERPLRDRRVVGLEQPRREGAFESGQVEPRPREPQGCYQEGQRIPPEREELIQSVLAQVAEQFSRAFKINELKAEVANHLAVLEKRVELEGLKVVEIEKCKSDIKKMREELAARSSRTNCPCKYSFLDNHKKLTPRRDVPTYPKYLLSPETIEALRKPTFDVWLWEPNEMLSCLEHMYHDLGLVRDFSINPVTLRRWLFCVHDNYRNNPFHNFRHCFCVAQMMYSMVWLCSLQEKFSQTDILILMTAAICHDLDHPGYNNTYQINARTELAVRYNDISPLENHHCAVAFQILAEPECNIFSNIPPDGFKQIRQGMITLILATDMARHAEIMDSFKEKMENFDYSNEEHMTLLKMILIKCCDISNEVRPMEVAEPWVDCLLEEYFMQSDREKSEGLPVAPFMDRDKVTKATAQIGFIKFVLIPMFETVTKLFPMVEEIMLQPLWESRDRYEELKRIDDAMKELQKKTDSLTSGATEKSRERSRDVKNSEGDCA
For the molecule B2, the HIV_LTR transactiv. came out at 0.28 fold change.

B3: PIAS2: human host interactor protein, Gene ID 9063, expressed from transfected ORF vector (protein)
chain: MADFEELRNMVSSFRVSELQVLLGFAGRNKSGRKHDLLMRALHLLKSGCSPAVQIKIRELYRRRYPRTLEGLSDLSTIKSSVFSLDGGSSPVEPDLAVAGIHSLPSTSVTPHSPSSPVGSVLLQDTKPTFEMQQPSPPIPPVHPDVQLKNLPFYDVLDVLIKPTSLVQSSIQRFQEKFFIFALTPQQVREICISRDFLPGGRRDYTVQVQLRLCLAETSCPQEDNYPNSLCIKVNGKLFPLPGYAPPPKNGIEQKRPGRPLNITSLVRLSSAVPNQISISWASEIGKNYSMSVYLVRQLTSAMLLQRLKMKGIRNPDHSRALIKEKLTADPDSEIATTSLRVSLMCPLGKMRLTIPCRAVTCTHLQCFDAALYLQMNEKKPTWICPVCDKKAAYESLILDGLFMEILNDCSDVDEIKFQEDGSWCPMRPKKEAMKVSSQPCTKIESSSVLSKPCSVTVASEASKKKVDVIDLTIESSSDEEEDPPAKRKCIFMSETQSSPTKGVLMYQPSSVRVPSVTSVDPAAIPPSLTDYSVPFHHTPISSMSSDLPGLDFLSLIPVDPQYCPPMFLDSLTSPLTASSTSVTTTSSHESSTHVSSSSSRSETGVITSSGSNIPDIISLD
For the molecule B3, the HIV_LTR transactiv. came out at 0.42 fold change.

B4: SP100: human host interactor protein, Gene ID 6672, expressed from transfected ORF vector (protein)
chain: MAGGGGDLSTRRLNECISPVANEMNHLPAHSHDLQRMFTEDQGVDDRLLYDIVFKHFKRNKVEISNAIKKTFPFLEGLRDRDLITNKMFEDSQDSCRNLVPVQRVVYNVLSELEKTFNLPVLEALFSDVNMQEYPDLIHIYKGFENVIHDKLPLQESEEEEREERSGLQLSLEQGTGENSFRSLTWPPSGSPSHAGTTPPENGLSEHPCETEQINAKRKDTTSDKDDSLGSQQTNEQCAQKAEPTESCEQIAVQVNNGDAGREMPCPLPCDEESPEAELHNHGIQINSCSVRLVDIKKEKPFSNSKVECQAQARTHHNQASDIIVISSEDSEGSTDVDEPLEVFISAPRSEPVINNDNPLESNDEKEGQEATCSRPQIVPEPMDFRKLSTFRESFKKRVIGQDHDFSESSEEEAPAEASSGALRSKHGEKAPMTSRSTSTWRIPSRKRRFSSSDFSDLSNGEELQETCSSSLRRGSGSQPQEPENKKCSCVMCFPKGVPRSQEARTESSQASDMMDTMDVENNSTLEKHSGKRRKKRRHRSKVNGLQRGRKKDRPRKHLTLNNKVQKKRWQQRGRKANTRPLKRRRKRGPRIPKDENINFKQSELPVTCGEVKGTLYKERFKQGTSKKCIQSEDKKWFTPREFEIEGDRGASKNWKLSIRCGGYTLKVLMENKFLPEPPSTRKKRILESHNNTLVDPCEEHKKKNPDASVKFSEFLKKCSETWKTIFAKEKGKFEDMAKADKAHYEREMKTYIPPKGEKKKKFKDPNAPKRPPLAFFLFCSEYRPKIKGEHPGLSIDDVVKKLAGMWNNTAAADKQFYEKKAAKLKEKYKKDIAAYRAKGKPNSAKKRVVKAEKSKKKKEEEEDEEDEQEEENEEDDDK
Molecule B4 yielded an HIV_LTR transactiv. of 3.69 fold change.

B5: NKAP: human host interactor protein, Gene ID 79576, expressed from transfected ORF vector (protein)
chain: MAPVSGSRSPDREASGSGGRRRSSSKSPKPSKSARSPRGRRSRSHSCSRSGDRNGLTHQLGGLSQGSRNQSYRSRSRSRSRERPSAPRGIPFASASSSVYYGSYSRPYGSDKPWPSLLDKEREESLRQKRLSERERIGELGAPEVWGLSPKNPEPDSDEHTPVEDEEPKKSTTSASTSEEEKKKKSSRSKERSKKRRKKKSSKRKHKKYSEDSDSDSDSETDSSDEDNKRRAKKAKKKEKKKKHRSKKYKKKRSKKSRKESSDSSSKESQEEFLENPWKDRTKAEEPSDLIGPEAPKTLTSQDDKPLNYGHALLPGEGAAMAEYVKAGKRIPRRGEIGLTSEEIASFECSGYVMSGSRHRRMEAVRLRKENQIYSADEKRALASFNQEERRKRENKILASFREMVYRKTKGKDDK
Take B5: the HIV_LTR transactiv. is on record as 2.68 fold change.

B6: MIZF: human host interactor protein, Gene ID 25988, expressed from transfected ORF vector (protein)
chain: MPPPGKVPRKENLWLQCEWGSCSFVCSTMEKFFEHVTQHLQQHLHGSGEEEEEEEEDDPLEEEFSCLWQECGFCSLDSSADLIRHVYFHCYHTKLKQWGLQALQSQADLGPCILDFQSRNVIPDIPDHFLCLWEHCENSFDNPEWFYRHVEAHSLCCEYEAVGKDNPVVLCGWKGCTCTFKDRSKLREHLRSHTQEKVVACPTCGGMFANNTKFLDHIRRQTSLDQQHFQCSHCSKRFATERLLRDHMRNHVNHYKCPLCDMTCPLPSSLRNHMRFRHSEDRPFKCDCCDYSCKNLIDLQKHLDTHSEEPAYRCDFENCTFSARSLCSIKSHYRKVHEGDSEPRYKCHVCDKCFTRGNNLTVHLRKKHQFKWPSGHPRFRYKEHEDGYMRLQLVRYESVELTQQLLRQPQEGSGLGTSLNESSLQGIILETVPGEPGRKEEEEEGKGSEGTALSASQDNPSSVIHVVNQTNAQGQQEIVYYVLSEAPGEPPPAPEPPSGGIMEKLQGIAEEPEIQMV
Molecule B6 came in with an HIV_LTR transactiv. of 2.50 fold change.

B7: SF3A3: human host interactor protein, Gene ID 10946, expressed from transfected ORF vector (protein)
chain: METILEQQRRYHEEKERLMDVMAKEMLTKKSTLRDQINSDHRTRAMQDRYMEVSGNLRDLYDDKDGLRKEELNAISGPNEFAEFYNRLKQIKEFHRKHPNEICVPMSVEFEELLKARENPSEEAQNLVEFTDEEGYGRYLDLHDCYLKYINLKASEKLDYITYLSIFDQLFDIPKERKNAEYKRYLEMLLEYLQDYTDRVKPLQDQNELFGKIQAEFEKKWENGTFPGWPKETSSALTHAGAHLDLSAFSSWEELASLGLDRLKSALLALGLKCGGTLEERAQRLFSTKGKSLESLDTSLFAKNPKSKGTKRDTERNKDIAFLEAQIYEYVEILGEQRHLTHENVQRKQARTGEEREEEEEEQISESESEDEENEIIYNPKNLPLGWDGKPIPYWLYKLHGLNINYNCEICGNYTYRGPKAFQRHFAEWRHAHGMRCLGIPNTAHFANVTQIEDAVSLWAKLKLQKASERWQPDTEEEYEDSSGNVVNKKTYEDLKRQGLL
B7 returned an HIV_LTR transactiv. of 0.49 fold change.
